Measurements reported in patent US20190015518A1, “DRUG DELIVERY COMPOSITIONS AND METHODS” (priority 2016, published 2019).
Where “and” joins values, the source holds several entries; their conditions need not be identical. Identical values can stand only once.

How the values were obtained:
[1] = Viscosity reduction by excipients (rheometer); assay type: physicochemical
Protocol: The viscosity of 29 kDa HA (60 mg/mL), 33HA-Lys (33 kDa HA with linker, 8 mg/mL on HA basis), and 33HA-Lys-Pt (41.7 mg/mL on HA basis) with increasing concentration of mannitol (0, 0.1, 0.5 and 1 M) were measured using a rheometer at 37° C.
(§1) The solutions were incubated in the dark for 20 hours using a CLAY ADAMS® Brand Nutator. After 20 hours, the pH of the solutions were adjusted to pH 6.0 using 1N NaOH. A Brookfield DVIII Ultra Programmable Rheometer was used to measure the viscosity of three 500-μL samples of each solution. Measurements were taken for each at three different RPMs, where the torque ranged from 10-100%. Values for viscosity were not recorded until at least 30 seconds after the motor was started, after the torque readings were stabilized.
as §1, with “to pH 5.0 or 6.0 using” for “to pH 6.0 using”

[2] = test system: MDA-1986 head and neck tumors; experiment: Anticancer efficacy, orthotopic xenograft model of human HNSCC; assay type: in vivo, mouse; design: key to tumor response, Modified RECIST: PR=Partial Response (>30% reduction); PD=Progressive Disease (>30% tumor growth); SD=Stable Disease (neither PR nor PD criteria met)
Protocol: The MDA-1986 cells were prepared in PBS at a concentration of 2×10^7 cells/mL. Female NU/NU mice were anesthetized under 2% isoflurane in O2, and 50 μL of cell solution was injected into the oral sub-mucosa of the mice using a 27-ga needle. All procedures in the animal study were approved by the Institutional Animal Care and Use Committee of the University of Kansas. Tumor growth was monitored twice weekly by measurement with a digital caliper, and the tumor volume was calculated as 0.52×(width)^2×(length). […] The drugs were given weekly for 3 consecutive weeks.

[3] = Pharmacokinetics in a healthy dog, oral sub-mucosa injection (SAAM II model); assay type: in vivo
Protocol: Pharmacokinetics of HA-Lys-Pt were determined in a healthy dog by Xenometrics LLC (Stillwell, Kans.). […] After each injection, 2-mL serum samples were collected at 0, 0.25, 1, 2, 6, 24, 48, 96, and 168 hours. […] The samples were frozen at −80° C. until ICP-MS analysis. Prior to analysis, serum and urine samples were diluted 250 and 500-fold using 1% HNO3, respectively. The platinum calibration curve contained 4 replicates of 6 concentrations (0, 1, 10, 20, 40, and 50 ppb). The internal standard was bismuth at 50 ppb.
The pharmacokinetics of the HA-Lys-Pt was measured using the serum and urine samples. The data was modeled using SAAM II software with a four compartmental model.
As indicated by the model, q1, q2, q3, and q4 represent the central blood compartment, the body/tissue compartment, the injection site, and the urine compartment, respectively. The syringe represents the dose that was given to the injection site compartment. The two red circles indicate the two sampling sources, the serum from the q1 (s1), and the urine from the q4 (s2). Furthermore, five transfer rate constants and one loss rate constant were applied to the model to link the compartments and their individual differential equations for data analysis and simulation. The assignment of rate constants and pharmacokinetic interpretation has been discussed previously. The calculated PK parameters including AUC, clearance, volume of distribution at steady state (Vss), elimination half-lives (te), and transfer rate constants, are listed in Table 3.

[4] = 20 mg/kg s.c., three weekly injections

**Q.** For “HA-cis-[Pt(NH3)2(N^α-Acetyl-L-Lysine)] [75HA-Lys-Pt]”, which “percent reduction of viscosity” value ([1]; 12 mM CaAc2, pH 5.0) is on record?
**A.** 25.1-78.0%

**Q.** What about the “percent reduction of viscosity” value ([1]; 12 mM CaAc2, pH 6.0) of the same substance?
**A.** 21.4-81.0%

**Q.** What about the “percent reduction of viscosity” value ([1]; 12 mM NaCl, pH 5.0) of the same substance?
**A.** 36.6-83.2%

**Q.** And the “percent reduction of viscosity” value ([1]; 12 mM calcium lactate, pH 5.0)?
**A.** 23.0-71.8%

**Q.** What about the “percent reduction of viscosity” value ([1]; 12 mM calcium lactate, pH 6.0) of the same substance?
**A.** 24.3-80.9%

**Q.** What about the “percent reduction of viscosity” value ([1]; 12 mM sodium acetate and trehalose 15% wt, pH 5.0, two batches) of the same substance?
**A.** 54.1% and 84.3%

**Q.** What about the “percent reduction of viscosity” value ([1]; 12 mM sodium acetate, pH 5.0) of the same substance?
**A.** 14.5-89.2%

**Q.** What about the “percent reduction of viscosity” value ([1]; 12 mM sodium carbonate and trehalose 15% wt, pH 5.0) of the same substance?
**A.** 48.5-99.0%

**Q.** And the “percent reduction of viscosity” value ([1]; 12 mM sodium carbonate, pH 5.0)?
**A.** 60.6-99.2%

**Q.** And the “percent reduction of viscosity” value ([1]; 12 mM sodium citrate and trehalose 15% wt, pH 5.0)?
**A.** 15.6-95.4%

**Q.** What about the “percent reduction of viscosity” value ([1]; 12 mM sodium citrate, pH 5.0) of the same substance?
**A.** 38.4-97.2%

**Q.** And the “percent reduction of viscosity” value ([1]; CaCl2-containing PBS buffer, pH 6.0, three batches)?
**A.** 55.2-88.6%

**Q.** What about the “percent reduction of viscosity” value ([1]; Sodium Chelex 100, pH 5.0, two batches) of the same substance?
**A.** 82.0% and 91.7%

**Q.** And the “percent reduction of viscosity” value ([1]; buffer-free CaCl2, pH 5.0, three batches)?
**A.** 32.1-76.6%

**Q.** And the “percent reduction of viscosity” value ([1]; buffer-free CaCl2, pH 6.0, three batches)?
**A.** 26.6-77.0%

**Q.** What about the “average tumor size by the end of the sixth week” value [2, 4] of the same substance?
**A.** less than 200 mm^3

**Q.** And the tumor progression delay [2, 4]?
**A.** delayed by four weeks

**Q.** What about the “tumor response, Modified RECIST” value ([2]; animal #1) of the same substance?
**A.** PR (PR=Partial Response (>30% reduction))

**Q.** What about the “tumor response, Modified RECIST” value ([2]; animal #2) of the same substance?
**A.** PR (PR=Partial Response (>30% reduction))

**Q.** And the “tumor response, Modified RECIST” value ([2]; animal #3)?
**A.** PR (PR=Partial Response (>30% reduction))

**Q.** What about the “tumor response, Modified RECIST” value ([2]; animal #4) of the same substance?
**A.** SD

**Q.** And the “tumor response, Modified RECIST” value ([2]; animal #5)?
**A.** SD

**Q.** What about the “tumor response, Modified RECIST” value ([2]; animal #6) of the same substance?
**A.** PR (PR=Partial Response (>30% reduction))

**Q.** What about the “tumor response, Modified RECIST” value ([2]; animal #7) of the same substance?
**A.** SD

**Q.** And the “tumor response, Modified RECIST” value ([2]; animal #8)?
**A.** PR (PR=Partial Response (>30% reduction))

**Q.** What about the “rate of partial response (PR)” value ([2]; three weekly injections) of the same substance?
**A.** 62.5%

**Q.** And the Clearance ([3]; 1st dose […])?
**A.** 0.283 mL/min/kg

**Q.** And the Tmax ([3]; 1st dose […])?
**A.** 6 h

**Q.** And the Vss ([3]; 1st dose […])?
**A.** 7.4 L/kg

**Q.** What about the AUC ([3]; 2nd dose 2.0 mg/kg) of the same substance?
**A.** 218 µg·h/mL

**Q.** What about the Clearance ([3]; 2nd dose 2.0 mg/kg) of the same substance?
**A.** 0.153 mL/min/kg

**Q.** And the Cmax ([3]; 2nd dose 2.0 mg/kg)?
**A.** 3437 ng/mL

**Q.** And the Tmax ([3]; 2nd dose 2.0 mg/kg)?
**A.** 14.4 h

**Q.** And the Vss ([3]; 2nd dose 2.0 mg/kg)?
**A.** 2.5 L/kg
